This is an account of results in patent publication US20220073620A1 (CHANGCHUN GENESCIENCE PHARMACEUTICAL, published 2022).

For assay [1], the target named is PDL1 on the surface of CHO-PDL1-CD3L cells (UniProt Q9NZQ7 19-290, limits assumed). Description: cell-based or functional assay.
A further assay deals with T1, Human PD-L1-His (human, UniProt Q9NZQ7 19-238).
T1 construct: also called hPD-L1
Description: bridging ELISA, hPDL1-His and hVEGF121b-mFc as the two antigens; control diluted from 10 ug/ml.

For the next assay, the target named is T2, human VEGF-A-His (human, UniProt P15692 207-395).
T2 construct: also called hVEGF-A
T2 sequence: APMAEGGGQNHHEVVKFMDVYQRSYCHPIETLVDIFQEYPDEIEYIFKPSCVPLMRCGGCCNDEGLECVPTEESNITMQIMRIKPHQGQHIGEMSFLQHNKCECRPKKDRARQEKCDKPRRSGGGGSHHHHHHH
Description: SPR (Biacore T200), human VEGF-A-His coupled to the chip, fusion protein flowed over. How it is done: The affinities of FabT and FTF were detected by Biacore T200 instrument. The specific protocols were as follows. Human PD-L1-His (constructed by GeneScience, SEQ ID NO: 11) and human VEGF-A-His (constructed by GeneScience, SEQ ID NO: 13) were coupled to CMS biosensor chip (GE), and then the antibodies of different concentrations were flowed through the chip at a flow rate of 30 μL/min. The binding between the candidate antibody and antigen was performed with a binding time of 120 s and a dissociation time of 300 s. The kinetic fitting was performed using BIAevalution software (GE), and the results of affinity constants were obtained as shown in Table 6 and Table 7.

The target of another assay is VEGFA protein (UniProt P15692-4 27-191, limits assumed). Briefly: cell-based or functional assay.

Usually Kd stands for the constant that tells how readily two partners part at equilibrium. Read a high Kd as weaker binding. Broadly, the koff is the rate constant with which the complex falls apart. A low value points to a long-lived complex. What is called kon is a measure of how fast the partners come together. The low end stands for slow association, the high end for fast association.

T1 sequence (Q9NZQ7 19-238 limits assumed): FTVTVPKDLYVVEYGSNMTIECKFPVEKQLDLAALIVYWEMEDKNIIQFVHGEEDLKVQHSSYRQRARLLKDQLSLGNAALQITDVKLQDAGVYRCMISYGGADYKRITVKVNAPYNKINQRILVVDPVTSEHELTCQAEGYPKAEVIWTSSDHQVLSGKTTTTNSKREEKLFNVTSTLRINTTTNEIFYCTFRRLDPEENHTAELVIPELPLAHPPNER
Sequence of PDL1 on the surface of CHO-PDL1-CD3L cells (Q9NZQ7 19-290 limits assumed): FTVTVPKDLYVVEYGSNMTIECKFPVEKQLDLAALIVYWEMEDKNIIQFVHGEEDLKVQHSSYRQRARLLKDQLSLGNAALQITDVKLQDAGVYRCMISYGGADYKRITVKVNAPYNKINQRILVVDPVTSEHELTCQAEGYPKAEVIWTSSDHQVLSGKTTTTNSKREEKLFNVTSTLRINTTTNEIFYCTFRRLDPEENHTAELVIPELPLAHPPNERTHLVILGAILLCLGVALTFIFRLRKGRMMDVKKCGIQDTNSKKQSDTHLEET

B1: anti-human PD-L1 humanized monoclonal antibody 047 Ab-6 (antibody, V domains shown)
VH: EVQLVESGGGLVQPGGSLRLSCAASYFPFSDSWIHWVRQAPGKGLEWVAWISPYGGSSYYADSVQDRFTISADTSKNTAYLQMNSLRAEDTAVYYCAKRHWPGGFDHWGQGTLVTVSS
VL: DIQMTQSPSSLSASVGDRVTITCSASQDVTTAVAWYQQKPGKAPKLLIYSASFPYRGVPSRFSGSGSGTDFTLTISSLQPEDFATYYCQQYMYHPSTFGQGTKVEIK
For the molecule B1, the “EC50, luciferase reporter in Jurkat-PD1-NFAT cells co-cultured with CHO-PDL1-CD3L cells” value in assay [1] came to 3.55 nM.

B2: Eylea positive fusion protein (Fc fusion, not shown: a dimerising Fc or GST)
chain: SDTGRPFVEMYSEIPEIIHMTEGRELVIPCRVTSPNITVTLKKFPLDTLIPDGKRIIWDSRKGFIISNATYKEIGLLTCEATVNGHLYKTNYLTHRQTNTIIDVVLSPSHGIELSVGEKLVLNCTARTELNVGIDFNWEYPSSKHQHKKLVNRDLKTQSGSEMKKFLSTLTIDGVTRSDQGLYTCAASSGLMTKKNSTFVRVHEK
notes: also called control molecule Eylea
B2: in the assay with Human PD-L1-His, the binding result is reported as “no binding (tested: 10 ug/ml)”. Moreover, in the assay with human VEGF-A-His, the Kd stood at 1.51 nM, the koff is 0.000932 s⁻¹ and the kon stood at 617000 M⁻¹ s⁻¹. Moreover, the “IC50, luciferase reporter in NFAT-RE-Luc2P-KDR-HEK293 cells stimulated with 50 ng/ml VEGFA” value in the assay with VEGFA protein turned out to be 0.75 nM.
